Measurements taken from paper doi:10.1101/2020.06.28.176677 (bioRxiv, 2020).

Columns and labels:
native gel or EMSA = target: the molecule itself; experiment: native gel or EMSA
SEC = target: the molecule itself; experiment: SEC

B1: glutaryl-CoA dehydrogenase (GCDH), mouse liver mitochondria (enzyme, mouse (endogenous in liver mitochondria), UniProt Q60759 45-438, looked up)
chain: RPVFDWKDPLILEEQLTADEKLIRDTFRNYCQERLMSRILLANRNEVFHRDIVYEMGELGVLGPTIKGYGCAGVSSVAYGLLTRELERVDSGYRSMMSVQSSLVMHPIYTYGSEEQRQKYLPGLAKGELLGCFGLTEPNHGSDPGGMETRARHNPSNQSYTLSGTKTWITNSPVADLFIVWARCEDNCIRGFILEKGMRGLSAPRIEGKFSLRASATGMIIMDSVEVPEENVLPNVSSLAGPFGCLNTARYGITWGVLGAAEFCLHTARQYALDRIQFGVPLARNQLVQKKLADMLTEITLGLHACLQLGRLKDQDKATPEMVSMLKRNNCGKALDIARQARDILGGNGISDEYHVIRHAMNLEAVNTYEGTHDIHALILGRAITGIQAFTVGK
Native gel or EMSA
  stoichiometry N: 4

B2: recombinant human GCDH, unmodified (hGCDH-6xHIS) (enzyme, UniProt Q92947 45-438, looked up)
chain: RPEFDWQDPLVLEEQLTTDEILIRDTFRTYCQERLMPRILLANRNEVFHREIISEMGELGVLGPTIKGYGCAGVSSVAYGLLARELERVDSGYRSAMSVQSSLVMHPIYAYGSEEQRQKYLPQLAKGELLGCFGLTEPNSGSDPSSMETRAHYNSSNKSYTLNGTKTWITNSPMADLFVVWARCEDGCIRGFLLEKGMRGLSAPRIQGKFSLRASATGMIIMDGVEVPEENVLPGASSLGGPFGCLNNARYGIAWGVLGASEFCLHTARQYALDRMQFGVPLARNQLIQKKLADMLTEITLGLHACLQLGRLKDQDKAAPEMVSLLKRNNCGKALDIARQARDMLGGNGISDEYHVIRHAMNLEAVNTYEGTHDIHALILGRAITGIQAFTASK
SEC
  stoichiometry N: 4

B3: chemically succinylated recombinant human GCDH (succinyl-GCDH) (enzyme, UniProt Q92947 45-438, looked up)
chain: RPEFDWQDPLVLEEQLTTDEILIRDTFRTYCQERLMPRILLANRNEVFHREIISEMGELGVLGPTIKGYGCAGVSSVAYGLLARELERVDSGYRSAMSVQSSLVMHPIYAYGSEEQRQKYLPQLAKGELLGCFGLTEPNSGSDPSSMETRAHYNSSNKSYTLNGTKTWITNSPMADLFVVWARCEDGCIRGFLLEKGMRGLSAPRIQGKFSLRASATGMIIMDGVEVPEENVLPGASSLGGPFGCLNNARYGIAWGVLGASEFCLHTARQYALDRMQFGVPLARNQLIQKKLADMLTEITLGLHACLQLGRLKDQDKAAPEMVSLLKRNNCGKALDIARQARDMLGGNGISDEYHVIRHAMNLEAVNTYEGTHDIHALILGRAITGIQAFTASK
modifications: succinyl-lysine, 11 sites found by LC-MS/MS (sites shown in Supporting Figure 2G, not given)
SEC
  stoichiometry N: 4
